Source: PMC10958042

B1: ATGL (PNPLA2, patatin-like phospholipase domain-containing protein 2), human, full length / G0S2 (G0/G1 switch protein 2), human (parent)
chain 1: MFPREKTWNISFAGCGFLGVYYVGVASCLREHAPFLVANATHIYGASAGALTATALVTGVCLGEAGAKFIEVSKEARKRFLGPLHPSFNLVKIIRSFLLKVLPADSHEHASGRLGISLTRVSDGENVIISHFNSKDELIQANVCSGFIPVYCGLIPPSLQGVRYVDGGISDNLPLYELKNTITVSPFSGESDICPQDSSTNIHELRVTNTSIQFNLRNLYRLSKALFPPEPLVLREMCKQGYRDGLRFLQRNGLLNRPNPLLALPPARPHGPEDKDQAVESAQAEDYSQLPGEDHILEHLPARLNEALLEACVEPTDLLTTLSNMLPVRLATAMMVPYTLPLESALSFTIRLLEWLPDVPEDIRWMKEQTGSICQYLVMRAKRKLGRHLPSRLPEQVELRRVQSLPSVPLSCAAYREALPGWMRNNLSLGDALAKWEECQRQLLLGLFCTNVAFPPEALRMRAPADPAPAPADPASPQHQLAGPAPLLSTPAPEARPVIGALGL
chain 2: METVQELIPLAKEMMAQKRKGKMVKLYVLGSVLALFGVVLGLMETVCSPFTAARRLRDQEAAVAELQAALERQALQKQALQEKGKQQDTVLGGRALSNRQHAS
B2: ATGL (PNPLA2, patatin-like phospholipase domain-containing protein 2), human, full length / CIDEC (FSP27), human (parent)
chain 1: B1 chain 1
chain 2: MEYAMKSLSLLYPKSLSRHVSVRTSVVTQQLLSEPSPKAPRARPCRVSTADRSVRKGIMAYSLEDLLLKVRDTLMLADKPFFLVLEEDGTTVETEEYFQALAGDTVFMVLQKGQKWQPPSEQGTRHPLSLSHKPAKKIDVARVTFDLYKLNPQDFIGCLNVKATFYDTYSLSYDLHCCGAKRIMKEAFRWALFSMQATGHVLLGTSCYLQQLLDATEEGQPPKGKASSLIPTCLKILQ

Variants of: B1
Assay: LUMIER: Protein A-ATGL variant and firefly luciferase-partner co-expressed in HEK293T, lysates immunoprecipitated on IgG-coated plates, co-precipitated partner measured as luciferase luminescence
Conditions: with G0S2 (G0/G1 switch protein 2), transient co-transfection, IgG-coated LUMITRAC plates, 2 h at 4 °C, three PBS washes, Bright-Glo luciferase reagent, triplicates per assay, two …, parent: 0.26, not graded, scale: log2 fold change of co-immunoprecipitated luminescence relative to wild-type ATGL within each experiment

| Variant | screen value |
| --- | --- |
| chain 1 K275A | -0.535 |
| chain 1 F35A | -0.163 |
| chain 1 F35E | -0.0735 |
| chain 1 G16K | -0.435 |
| chain 1 V127L | 0.199 |
| chain 1 R329E | -0.556 |
| chain 1 A104E | -0.113 |
| chain 1 K92L | 0.251 |
| chain 1 G189E | -2.28 |
| chain 1 L178A | -0.634 |
| chain 1 E125L | -0.308 |
| chain 1 S158A | -0.121 |
| chain 1 S158E | -0.0501 |
| chain 1 E368A | -0.233 |
| chain 1 I70A | -1.03 |
| chain 1 I70K | -1.77 |
| chain 1 F348E | -0.115 |
| chain 1 R95K | 0.105 |
| chain 1 R95L | -0.0587 |
| chain 1 G59L | -2.12 |

| Variant | screen value |
| --- | --- |
| chain 1 E314A | 0.00238 |
| chain 1 V328A | -2.09 |
| chain 1 Q396A | -1.32 |
| chain 1 N180L | -1.96 |
| chain 1 A453E | 0.72 |
| chain 1 T41A | 0.0368 |
| chain 1 P258L | -1.36 |
| chain 1 L102K | -2.65 |
| chain 1 A434L | 0.461 |
| chain 1 L62K | -1.38 |
| chain 1 L62A | -1.67 |
| chain 1 R351L | 0.121 |
| chain 1 S87A | -0.675 |
| chain 1 S87E | -0.559 |
| chain 1 L159A | -0.413 |
| chain 1 P86K | -0.894 |
| chain 1 R113L | -0.0286 |
| chain 1 R113K | 0.927 |
| chain 1 G66L | -0.176 |
| chain 1 G66A | 0.751 |

Same assay, conditions: with G0S2 (G0/G1 switch protein 2), transient co-transfection, IgG-coated LUMITRAC plates, 2 h at 4 °C, three PBS washes, Bright-Glo luciferase reagent, triplicates per assay, two …, parent: 0.56, not graded, scale: log2 fold change of co-immunoprecipitated luminescence relative to wild-type ATGL within each experiment

| Variant | screen value |
| --- | --- |
| chain 1 K275A | -0.748 |
| chain 1 F35A | -0.133 |
| chain 1 F35E | 0.169 |
| chain 1 G16K | -0.755 |
| chain 1 V127L | 0.376 |
| chain 1 R329E | -0.22 |
| chain 1 A104E | 0.0584 |
| chain 1 K92L | -0.642 |
| chain 1 G189E | -2.66 |
| chain 1 L178A | 0.0997 |
| chain 1 E125L | -0.181 |
| chain 1 S158A | 0.343 |
| chain 1 S158E | 0.0613 |
| chain 1 E368A | -0.215 |
| chain 1 I70A | -1.14 |
| chain 1 I70K | -2.22 |
| chain 1 F348E | -0.287 |
| chain 1 R95K | 0.0501 |
| chain 1 R95L | -0.569 |
| chain 1 G59L | -2.22 |

| Variant | screen value |
| --- | --- |
| chain 1 E314A | -0.218 |
| chain 1 V328A | -2.9 |
| chain 1 Q396A | -1.71 |
| chain 1 N180L | -1.94 |
| chain 1 A453E | -0.082 |
| chain 1 T41A | 0.0587 |
| chain 1 P258L | -1.64 |
| chain 1 L102K | -2.45 |
| chain 1 A434L | -0.0543 |
| chain 1 L62K | -1.99 |
| chain 1 L62A | -2.25 |
| chain 1 R351L | 0.273 |
| chain 1 S87A | -0.33 |
| chain 1 S87E | -1.39 |
| chain 1 L159A | -0.671 |
| chain 1 P86K | -0.783 |
| chain 1 R113L | -0.429 |
| chain 1 R113K | -0.0371 |
| chain 1 G66L | -0.16 |
| chain 1 G66A | 0.00762 |

Variants of: B2
Assay: as above
Conditions: with CIDEC (FSP27), transient co-transfection, IgG-coated LUMITRAC plates, 2 h at 4 °C, three PBS washes, Bright-Glo luciferase reagent, triplicates per assay, two …, parent: 0.17, not graded, scale: log2 fold change of co-immunoprecipitated luminescence relative to wild-type ATGL within each experiment

| Variant | screen value |
| --- | --- |
| chain 1 P258L | -0.89 |
| chain 1 V127L | -0.166 |
| chain 1 S87E | -0.478 |
| chain 1 S87A | -0.0562 |
| chain 1 R351L | -0.353 |
| chain 1 T41A | 0.105 |
| chain 1 P86K | 0.081 |
| chain 1 R329E | 0.201 |
| chain 1 S158A | -0.128 |
| chain 1 S158E | -0.309 |
| chain 1 Y415A | -0.411 |
| chain 1 R95L | -0.169 |
| chain 1 R95K | -0.0915 |
| chain 1 N39E | 0.129 |
| chain 1 S106K | -0.0703 |
| chain 1 Q396A | 0.0352 |
| chain 1 P103K | -0.241 |
| chain 1 R163K | 0.652 |
| chain 1 R113L | -0.719 |
| chain 1 R113K | -0.11 |
| chain 1 V328A | 0.302 |
| chain 1 N180L | -0.529 |
| chain 1 Q140A | 0.722 |
| chain 1 Q140K | -0.161 |
| chain 1 P156K | -0.723 |

Same assay, conditions: with CIDEC (FSP27), transient co-transfection, IgG-coated LUMITRAC plates, 2 h at 4 °C, three PBS washes, Bright-Glo luciferase reagent, triplicates per assay, two …, parent: 0.24, not graded, scale: log2 fold change of co-immunoprecipitated luminescence relative to wild-type ATGL within each experiment

| Variant | screen value |
| --- | --- |
| chain 1 P258L | -0.788 |
| chain 1 V127L | -0.0792 |
| chain 1 S87E | -0.728 |
| chain 1 S87A | -0.798 |
| chain 1 R351L | -0.407 |
| chain 1 T41A | -0.176 |
| chain 1 P86K | -0.642 |
| chain 1 R329E | -0.13 |
| chain 1 S158A | 0.0569 |
| chain 1 S158E | -0.238 |
| chain 1 Y415A | -0.266 |
| chain 1 R95L | 0.507 |
| chain 1 R95K | -0.656 |
| chain 1 N39E | -0.0276 |
| chain 1 S106K | -0.113 |
| chain 1 Q396A | -0.182 |
| chain 1 P103K | -0.421 |
| chain 1 R163K | 0.0551 |
| chain 1 R113L | 0.537 |
| chain 1 R113K | 0.829 |
| chain 1 V328A | -0.193 |
| chain 1 N180L | -0.574 |
| chain 1 Q140A | 0.0209 |
| chain 1 Q140K | 0.485 |
| chain 1 P156K | -0.374 |
